Assay results taken from PMC9352680, “A comprehensive thermodynamic model for RNA binding by the Saccharomyces cerevisiae Pumilio protein PUF4”.

T1: PUF4 RNA-binding domain (Saccharomyces cerevisiae, UniProt P25339 537-888)
T1 sequence: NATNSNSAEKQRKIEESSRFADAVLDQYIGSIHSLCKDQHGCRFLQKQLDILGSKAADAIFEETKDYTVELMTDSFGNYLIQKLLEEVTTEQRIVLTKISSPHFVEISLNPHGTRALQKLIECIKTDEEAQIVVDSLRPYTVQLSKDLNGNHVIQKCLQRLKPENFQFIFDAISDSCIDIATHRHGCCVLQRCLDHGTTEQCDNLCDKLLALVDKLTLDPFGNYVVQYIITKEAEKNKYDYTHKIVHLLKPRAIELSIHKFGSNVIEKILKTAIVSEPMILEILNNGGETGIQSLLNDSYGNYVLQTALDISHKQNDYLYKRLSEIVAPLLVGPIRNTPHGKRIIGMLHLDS


target: T1, PUF4 RNA-binding domain; test: Mg; RNA-MaP; 20 mM Na-HEPES pH 7.4, 30 mM KOAc, 0.75 mM MgCl2, 0.1% Tween-20, 5% glycerol, 0.1 mg/mL BSA, 2 mM DTT; 25 C; 0.0125-409.6 nM protein; settings: tags: N-His6-TEV cleaved; C-SNAP kept, Cy3B-labelled; label: tethered on chip by stalled RNA polymerase

Binder | Kd [nM]
UCUCUUUGUAAUUCCUUCUCUU (ssRNA) [Ic_S1_P5E.1_K5.1_C5.1_H5.1_A5.1_[T5A]_[A7T]_F5.1_[T8C]_[T9C]_[A10T]_T5.1] | 448
UCUCUUUCUUUAUAUCUCUU (ssRNA) [Ib_S1_P3E.1_K3.1_C3.1_H3.1_[G2C]_[A4T]_A3.1_F3.1_T3.1] | > 2300
UCUCUUUGUAUGUGCCUCUCUU (ssRNA) [Ic_S1_P5E.1_K5.1_C5.1_H5.1_A5.1_[T6G]_[A7T]_F5.1_[T8G]_[T9C]_[A10C]_T5.1] | 838
UCUCUUUGUACAAACUUCUCUU (ssRNA) [Ic_S1_P5E.1_K5.1_C5.1_H5.1_A5.1_[T5C]_[T6A]_F5.1_[T8A]_[T9C]_[A10T]_T5.1] | 93.1
UCUCUUUUUUUAUAUCUCUU (ssRNA) [Ib_S1_P3E.1_K3.1_C3.1_H3.1_[G2T]_[A4T]_A3.1_F3.1_T3.1] | > 2300
UCUCUUUUUGUAUAUCUCUU (ssRNA) [Ib_S1_P3E.1_K3.1_C3.1_H3.1_[G2T]_[A4G]_A3.1_F3.1_T3.1] | 25.1
UCUCUUUGUAAUCAGCUCUCUU (ssRNA) [Ic_S1_P5E.1_K5.1_C5.1_H5.1_A5.1_[T5A]_[A7C]_F5.1_[T8A]_[T9G]_[A10C]_T5.1] | 1300
UCUCUUUGUAAUACCUUCUCUU (ssRNA) [Ic_S1_P5E.1_K5.1_C5.1_H5.1_A5.1_[T5A]_F5.1_[T8C]_[T9C]_[A10T]_T5.1] | 690
UCUCUUUGUAAGUUAAUCUCUU (ssRNA) [Ic_S1_P5E.1_K5.1_C5.1_H5.1_A5.1_[T5A]_[T6G]_[A7T]_F5.1_[T9A]_T5.1] | 66.4
UCUCUUUGUAAACCGCUCUCUU (ssRNA) [Ic_S1_P5E.1_K5.1_C5.1_H5.1_A5.1_[T5A]_[T6A]_[A7C]_F5.1_[T8C]_[T9G]_[A10C]_T5.1] | 625
UCUCUUUGUAAGUUAGUCUCUU (ssRNA) [Ic_S1_P5E.1_K5.1_C5.1_H5.1_A5.1_[T5A]_[T6G]_[A7T]_F5.1_[T9A]_[A10G]_T5.1] | 17.2
UCUCUUUGUAUACGACUCUCUU (ssRNA) [Ic_S1_P5E.1_K5.1_C5.1_H5.1_A5.1_[T6A]_[A7C]_F5.1_[T8G]_[T9A]_[A10C]_T5.1] | 49
UCUCUUUGUAUCGAUCUCUCUU (ssRNA) [Ic_S1_P5E.1_K5.1_C5.1_H5.1_A5.1_[T6C]_[A7G]_F5.1_[T8A]_[A10C]_T5.1] | 1870
UCUCUUUGUAAAUCAGUCUCUU (ssRNA) [Ic_S1_P5E.1_K5.1_C5.1_H5.1_A5.1_[T5A]_[T6A]_[A7T]_F5.1_[T8C]_[T9A]_[A10G]_T5.1] | 26.1
UCUCUUUGUAUGUAAGUCUCUU (ssRNA) [Ic_S1_P5E.1_K5.1_C5.1_H5.1_A5.1_[T6G]_[A7T]_F5.1_[T8A]_[T9A]_[A10G]_T5.1] | 446
UCUCUUUGUAUCUUGAUCUCUU (ssRNA) [Ic_S1_P5E.1_K5.1_C5.1_H5.1_A5.1_[T6C]_[A7T]_F5.1_[T9G]_T5.1] | 72.1
UCUCUUUGUACUGUGUUCUCUU (ssRNA) [Ic_S1_P5E.1_K5.1_C5.1_H5.1_A5.1_[T5C]_[A7G]_F5.1_[T9G]_[A10T]_T5.1] | 27.2
UCUCUUUGUACCCCAAUCUCUU (ssRNA) [Ic_S1_P5E.1_K5.1_C5.1_H5.1_A5.1_[T5C]_[T6C]_[A7C]_F5.1_[T8C]_[T9A]_T5.1] | 1350
UCUCUUUGUAUGUCCCUCUCUU (ssRNA) [Ic_S1_P5E.1_K5.1_C5.1_H5.1_A5.1_[T6G]_[A7T]_F5.1_[T8C]_[T9C]_[A10C]_T5.1] | 125
UCUCUUUGUACCAUCCUCUCUU (ssRNA) [Ic_S1_P5E.1_K5.1_C5.1_H5.1_A5.1_[T5C]_[T6C]_F5.1_[T9C]_[A10C]_T5.1] | 12.5
UCUCUUUCUCUAUAUCUCUU (ssRNA) [Ib_S1_P3E.1_K3.1_C3.1_H3.1_[G2C]_[A4C]_A3.1_F3.1_T3.1] | > 2300
UCUCUUUGUAUAGCUCUCUCUU (ssRNA) [Ic_S1_P5E.1_K5.1_C5.1_H5.1_A5.1_[T6A]_[A7G]_F5.1_[T8C]_[A10C]_T5.1] | 111
UCUCUUUGUAACACCUUCUCUU (ssRNA) [Ic_S1_P5E.1_K5.1_C5.1_H5.1_A5.1_[T5A]_[T6C]_F5.1_[T8C]_[T9C]_[A10T]_T5.1] | 621
UCUCUUUGUACCAAUCUCUCUU (ssRNA) [Ic_S1_P5E.1_K5.1_C5.1_H5.1_A5.1_[T5C]_[T6C]_F5.1_[T8A]_[A10C]_T5.1] | 119
UCUCUUUGUACCCUUUUCUCUU (ssRNA) [Ic_S1_P5E.1_K5.1_C5.1_H5.1_A5.1_[T5C]_[T6C]_[A7C]_F5.1_[A10T]_T5.1] | 35.9

Binder | Kd [nM]
UCUCUUUGUAAUAACUUCUCUU (ssRNA) [Ic_S1_P5E.1_K5.1_C5.1_H5.1_A5.1_[T5A]_F5.1_[T8A]_[T9C]_[A10T]_T5.1] | 1100
UCUCUUUGUACUGCACUCUCUU (ssRNA) [Ic_S1_P5E.1_K5.1_C5.1_H5.1_A5.1_[T5C]_[A7G]_F5.1_[T8C]_[T9A]_[A10C]_T5.1] | 724
UCUCUUUGUACCCCUCUCUCUU (ssRNA) [Ic_S1_P5E.1_K5.1_C5.1_H5.1_A5.1_[T5C]_[T6C]_[A7C]_F5.1_[T8C]_[A10C]_T5.1] | 1240
UCUCUUUGUAUCUCUGUCUCUU (ssRNA) [Ic_S1_P5E.1_K5.1_C5.1_H5.1_A5.1_[T6C]_[A7T]_F5.1_[T8C]_[A10G]_T5.1] | 58.6
UCUCUUUGUAUCGCCAUCUCUU (ssRNA) [Ic_S1_P5E.1_K5.1_C5.1_H5.1_A5.1_[T6C]_[A7G]_F5.1_[T8C]_[T9C]_T5.1] | 919
UCUCUUUGUAUAUAAUCUCUU (ssRNA) [Ia_S1_P4E.1_K4.1_C4.1_H4.1_A4.1_F4.1_[T8A]_T4.1] | 4.12
UCUCUUUGUACGAAUGUCUCUU (ssRNA) [Ic_S1_P5E.1_K5.1_C5.1_H5.1_A5.1_[T5C]_[T6G]_F5.1_[T8A]_[A10G]_T5.1] | 819
UCUCUUUGUACAAUCUUCUCUU (ssRNA) [Ic_S1_P5E.1_K5.1_C5.1_H5.1_A5.1_[T5C]_[T6A]_F5.1_[T9C]_[A10T]_T5.1] | 25.9
UCUCUUUGUAUCAUGCUCUCUU (ssRNA) [Ic_S1_P5E.1_K5.1_C5.1_H5.1_A5.1_[T6C]_F5.1_[T9G]_[A10C]_T5.1] | 11.3
UCUCUUUGUACAUCCAUCUCUU (ssRNA) [Ic_S1_P5E.1_K5.1_C5.1_H5.1_A5.1_[T5C]_[T6A]_[A7T]_F5.1_[T8C]_[T9C]_T5.1] | 29.4
UCUCUUUGUAACUUGUUCUCUU (ssRNA) [Ic_S1_P5E.1_K5.1_C5.1_H5.1_A5.1_[T5A]_[T6C]_[A7T]_F5.1_[T9G]_[A10T]_T5.1] | 49.4
UCUCUUUGUAUACGUUUCUCUU (ssRNA) [Ic_S1_P5E.1_K5.1_C5.1_H5.1_A5.1_[T6A]_[A7C]_F5.1_[T8G]_[A10T]_T5.1] | 43.4
UCUCUUUGUACUUACGUCUCUU (ssRNA) [Ic_S1_P5E.1_K5.1_C5.1_H5.1_A5.1_[T5C]_[A7T]_F5.1_[T8A]_[T9C]_[A10G]_T5.1] | 504
UCUCUUUGUAAUUUGCUCUCUU (ssRNA) [Ic_S1_P5E.1_K5.1_C5.1_H5.1_A5.1_[T5A]_[A7T]_F5.1_[T9G]_[A10C]_T5.1] | 81.9
UCUCUUUGUACGUGUUUCUCUU (ssRNA) [Ic_S1_P5E.1_K5.1_C5.1_H5.1_A5.1_[T5C]_[T6G]_[A7T]_F5.1_[T8G]_[A10T]_T5.1] | 98.8
UCUCUUUGUAGCUUGAUCUCUU (ssRNA) [Ic_S1_P5E.1_K5.1_C5.1_H5.1_A5.1_[T5G]_[T6C]_[A7T]_F5.1_[T9G]_T5.1] | 651
UCUCUUUGUAAUUUCGUCUCUU (ssRNA) [Ic_S1_P5E.1_K5.1_C5.1_H5.1_A5.1_[T5A]_[A7T]_F5.1_[T9C]_[A10G]_T5.1] | 92.7
UCUCUUUGUACAUUACUCUCUU (ssRNA) [Ic_S1_P5E.1_K5.1_C5.1_H5.1_A5.1_[T5C]_[T6A]_[A7T]_F5.1_[T9A]_[A10C]_T5.1] | 0.694
UCUCUUUGUAAUAAUGUCUCUU (ssRNA) [Ic_S1_P5E.1_K5.1_C5.1_H5.1_A5.1_[T5A]_F5.1_[T8A]_[A10G]_T5.1] | 521
UCUCUUUGUAUACCCGUCUCUU (ssRNA) [Ic_S1_P5E.1_K5.1_C5.1_H5.1_A5.1_[T6A]_[A7C]_F5.1_[T8C]_[T9C]_[A10G]_T5.1] | 675
UCUCUUUGUACCACCGUCUCUU (ssRNA) [Ic_S1_P5E.1_K5.1_C5.1_H5.1_A5.1_[T5C]_[T6C]_F5.1_[T8C]_[T9C]_[A10G]_T5.1] | 821
UCUCUUUGUAGCAUACUCUCUU (ssRNA) [Ic_S1_P5E.1_K5.1_C5.1_H5.1_A5.1_[T5G]_[T6C]_F5.1_[T9A]_[A10C]_T5.1] | 8.64
UCUCUUUGUAAUGUUUUCUCUU (ssRNA) [Ic_S1_P5E.1_K5.1_C5.1_H5.1_A5.1_[T5A]_[A7G]_F5.1_[A10T]_T5.1] | 118
UCUCUUUGUAUAAAAAUCUCUU (ssRNA) [Ic_S1_P5E.1_K5.1_C5.1_H5.1_A5.1_[T6A]_F5.1_[T8A]_[T9A]_T5.1] | 42
UCUCUUUGUAUCUAUAUCUCUU (ssRNA) [Ic_S1_P5E.1_K5.1_C5.1_H5.1_A5.1_[T6C]_[A7T]_F5.1_[T8A]_T5.1] | 11.5
